Results: patent publication US20070298494

Assay: BS3 chemical cross-linking in solution, SDS-PAGE, silver stain; association of the peptide with itself

## KKKKPARVGLGITTVLTMTTQSSGSRA [N-K4-M2GlyR]
  number of aggregates: SEQ ID No. 3 comprised 12 or more aggregates
